Patent publication US20250188136A1, “AV3 MUTANT POLYPEPTIDES FOR PEST CONTROL” (Vestaron Corporation, priority 2021, published 2025)
“Also recorded” adds a separate entry of the source. Ends that are not written are not given here.

Tests used:
[1] = test system: houseflies; test: Housefly injection assay (knock-down); format: in vivo, Musca domestica
Procedure: An exemplary housefly injection bioassay is as follows: conditioned media is serially diluted to generate full dose-response curves from the housefly injection bioassay. Before injection, adult houseflies (Musca domestica) are immobilized with CO2, and 12-18 mg houseflies are selected for injection. A microapplicator, loaded with a 1 cc syringe and 30-gauge needle, is used to inject 0.5 μL per fly, doses of serially diluted conditioned media samples into houseflies through the body wall of the dorsal thorax. The injected houseflies are placed into closed containers with moist filter paper and breathing holes on the lids, and they are examined by knock-down ratio or by mortality scoring at 24 hours post-injection. Normalized yields are calculated. Peptide yield means the peptide concentration in the conditioned media in units of mg/L. However, peptide yields are not always sufficient to accurately compare the strain production rate. […] A culture with a high cell density may produce a higher concentration of the peptide in the media, even though the peptide production rate of the strain is lower than another strain which has a higher production rate. Accordingly, the term “normalized yield” is created by dividing the peptide yield with the cell density in the corresponding culture and this allows a better comparison of the peptide production rate between strains. The cell density is represented by the light absorbance at 600 nm with a unit of “A” (Absorbance unit).
A housefly injection assay was performed to determine the activity of the new mutants. Adult houseflies were immobilized with CO2 for 10 minutes, and then transferred to a CO2 pan to keep immobilized. Flies with weight between 12-20 mg were picked for injection. The new mutants and Av3b control were diluted in water to proper doses for injection. Next, a 0.5 μL peptide solution was injected into each housefly at the dorsal thorax using a hand-microapplicator with 1 cc all-glass syringe with 30 gauge straight needle. The injected flies were then transferred to a 2 oz. transparent portion container with a wet #4 filter paper. Fly knock-down was assessed at 5-hours post-injection. The activity of a given new mutant was then normalized to the activity of the Av3b production strain (control), using the fly knock-down score at 5 hours.

[2] = test system: Spodoptera frugiperda; test: Lepidoptera injection assay, fall armyworm (FAW); format: in vivo; details: third instar larva, 2 μL injection, scored at 24-hours post-injection
Procedure: An injection assay was performed on Helicoverpa zea (corn earworm or “CEW”) and Spodoptera frugiperda (fall armyworm or “FAW”). Injections comprised a given Av3b mutant peptide combined with water to arrive at the planned dose. The Av3b mutants included Av3bM24; Av3bM165; Av3bM103; and Av3bM170. Av3b was used as a control.
Insects were reared on an artificial diet prepared from General Purpose Lepidoptera diet (Frontier Scientific, Newark, DE 19713, product No. F9772) according to the manufacturer's instructions. To perform the insect injection bioassay, 5 mL of hot diet was dispensed into the well of a rearing tray (Bio-Service Inc., Bio-RT-32), with 8 wells per injection treatment. The hot diet was then allowed to cool and solidify. Next, third instar larva were incubated on ice in order to immobilize them. Injections were prepared on a hand-microapplicator with injection solution (>100 μL) in 1-cc all-glass syringe having a 30 gauge straight needle. Air bubbles were removed from the syringe, and the syringe was set it up on the microapplicator. Injection volume was adjusted in the microapplicator at 2 μL.
To inject the larva, the insects were picked up and positioned close to the injection needle. The needle was allowed to penetrate the cuticle of the third pro-leg of the larva. The injection knob of the microapplicator was then rotated to inject a 2 μL solution into hemolymph from the third pro-leg. After injection the larva maintained on the needle for a few seconds to make sure the injected solution was absorbed. Then, the larva were gently removed from the needle and placed into the wells of prepared tray, along with 5 mL of solidified diet per well. Finally, the tray was sealed with vent covers.
Injected larva were incubated at 28° C. in an insect incubator, and scored at 24-hours post-injection based on their condition. Insect conditions were categorized as follows: alive (walking, eating, normal behavior); affected (showing toxic symptoms, such as tremors, writhing, unbalanced gait, or a combination thereof), knockdown (paralyzed albeit able to move with gentle poke); and dead (unmoving, discoloration, or a combination thereof).

[3] = Circular dichroism assay, melting temperature; format: physicochemical; details: 10 mM Na3PO4 solution, pH 5.9; 20° C. to 98° C.
Procedure: A JASCO J-1500 CD spectrometer (JASCO, 28600 Mary's Court, Easton, MD 21601 USA) was used to measure the CD spectrum and the secondary structure information of the Av3bM24, Av3bM165, Av3bM103, and Av3bM170 peptides (with Av3b as a comparator). The peptides were prepared in 10 mM Na3PO4 solution, pH 5.9, and loaded into the cuvette for CD spectrum measurement. Measurements were processed with a light wavelength scan ranging from 180 nm to 250 nm, with a 1 nm interval; the temperature graduate changed from 20° C. to 98° C., with 2° C. interval.

[4] = Thermo-stability at 54° C. in pH 4.0 solution; format: physicochemical
Procedure: A thermo-stability study was performed for Av3b, Av3bM24, Av3bM165, Av3bM103, and Av3bM170 in a pH 4.0 solution at 54° C. for 0, 3, 7, 10, 12, and 14 days, with a caffeine internal control to cancel variation from evaporation. Samples of 1 mL were prepared in 1.5 mL microtube with sodium acetate buffer (NaOAc) at pH 4.0, containing 0.1 μg/μL of peptide, and 0.025 μg/μL of caffeine. The samples were incubated at 54° C. in a dry mixer. At 0, 3, 7, 10, 12, and 14 days, 20 μL of each sample was analyzed via analytic rpHPLC system to evaluate peptide loss. Each sample contained a fixed amount caffeine, which was used to compensate the peptide HPLC UV absorbance peak change due to volume change by evaporation. FIG. 68.

[5] = Stability of Av3b mutants in insect gut extract; format: in vitro ADME, Helicoverpa zea; details: H. zea gut extract digestion, room temperature
Procedure: To test the stability of the Av3b mutants in the gut enzymes of a lepidopteran pest, the gut extract were prepared from Helicoverpa zea (Corn Earworm or “CEW”). Corn Earworm insects were obtained commercially from Benzon Research (Carlisle, PA) as eggs. Hatched larvae were raised on artificial diet until ⅘^th instar (20 mm long) before guts were isolated. Before gut extraction, larvae were anesthetized using CO2. The larva was then pinned on the dissection plate at both the head and the tail. Using dissection scissors, the cuticle was nicked. The dissection scissors were then inserted into the nick and the […] along the insect. The cuticle was then carefully pulled back and pinned open to reveal the digestive track. Using DI water, the insect was thoroughly rinsed to remove hemolymph.
After the insect guts were extracted from the larva, they were spun at 15000 rpm for 5 minutes. The resulting supernatant is the “insect gut extract” that was used to determine peptide stability. Av3b mutant peptide was mixed with the gut extract to […] of 2 μg/μL, and incubated at room temperature. At time points between 0-100 hours, 6 μL of a given sample was mixed with 93 μL dH2O followed by the addition of 1 μL of a 2% trifluoracetic acid solution to stop the reaction. The sample was then analyzed by rpHPLC to determine the peptide loss during the gut extract treatment.

KSCCPCYWGGCPWGQNCYPEGCDGPK (ends and bridges not checked; cysteine pairing not given here) [Av3bM24]
housefly knock-down / insecticidal activity relative to Av3b ([1]; knock-down at 5 hours post-injection): without a concomitant reduction in housefly knock-down activity; also recorded: insecticidal activity
Activity ([1]; knock-down at 5 hours post-injection normalized to Av3b, Yes = insecticidal activity maintained): Yes
KD50 FAW [2]: 949 pmol/g
CD Melting temperature [3]: 80 °C
peptide change on day 14 ([4]; pH 4.0, 54° C., HPLC peak area, + mass increase, − mass loss): −29.5%
thermo-stability at 54° C. ([4]; pH 4.0 solution, up to 14 days): not thermo-stable
resistance to degradation in gut extract [5]: most resistant to degradation
